{"source": "patent US20250041379A1", "about": "“METHODS AND COMPOSITIONS FOR THE TREATMENT OF CANCER” (Vigeo Therapeutics, Inc., priority 2021, published 2025)", "key": {"pancreatic cancer": {"tested_on": "pancreatic cancer", "assay": "Example 3: treatment of pancreatic cancer with dually elevated CD36 and CD47", "format": "in vivo", "settings": "expected", "protocol": "Subjects having pancreatic cancer are identified using standard clinical protocols. Samples are obtained and levels of CD36 and CD47 measured using methods known in the art. Subjects presenting with dually elevated CD36 and CD47 levels as compared to suitable controls are selected for dosing with VT1021. Subjects advancing to the treatment phase are administered VT1021. Frequency and dosage are determined in accordance with the stage and severity of disease accordingly to methods standard in the art. Tumor burden and other disease indicators are measured and data compiled using methods known in the art."}, "TSP-1": {"tested_on": "TSP-1", "assay": "Immunohistochemistry and pathological examination of pre-treatment and on-study rGBM tumor biopsy", "format": "in vivo, human", "settings": "subject with rGBM who achieved CR", "text": "FIG. 10 is a chart showing that VT1021 induces TSP-1 in the circulation and the TME. (A) Bar graph of Tsp-1 protein levels measured by ELISA in circulating MDSCs collected prior to (baseline) and after (induction) treatment with VT1021 from patients who experienced complete or partial response, stable disease, or progressive disease; (B) H&E and immunohistochemical analysis of patient tumor tissue prior to onset (pre) or during treatment with VT1021; (C) Immunohistochemical analysis depicting representative images of high levels of CD36 and CD47.\nThe blood samples were collected from GBM subjects in the expansion phase, who were treated by VT1021 at 11.8 mg/kg, twice weekly, by IV infusion. VT1021 levels were measured and analyzed among male and female subjects (FIG. 7). […] CD36 and CD47 levels have been measured by immunohistochemistry assays in the pre-treatment tumor biopsy samples of the GBM subjects (FIG. 9, FIG. 10). Levels of Tsp-1 were measured by ELISA for circulating Tsp-1 levels in the collected blood samples, and by immunohistochemistry for the level of Tsp-1 accumulated in the tumor biopsy samples (FIG. 10). The infiltration of immune and inflammatory cells, specifically, MDSCs, T cells and macrophages, were determined by immunohistochemical analysis of the levels of cell surface markers in the tumor biopsy samples of subjects (FIG. 11)."}, "[1]": {"tested_on": "subjects with pancreatic cancer", "assay": "Phase I/II clinical study (NCT03364400): adverse events in subjects with pancreatic cancer", "format": "in vivo, human", "protocol": "VT1021 was evaluated in a recently completed phase I/II open-label, multicenter, dose escalation (Part 1) and expansion (Part 2) clinical study in advanced, refractory, solid tumors including pancreatic cancer (NCT03364400). Seven subjects with pancreatic cancer were dosed in Part 1 and 32 were dosed in Part 2, 17 of which were considered evaluable as having completed ≥1 cycle of VT1021 treatment and tumor imaging during cycle 2. […] In the “expansion stage” of the VT1021-01 Study, subjects diagnosed with recurrent GBM, pancreatic cancer, ovarian cancer and other solid tumors were enrolled. They were treated with VT1021 at 11.8 mg/kg, twice weekly by IV infusion. The blood samples were collected from the clinical study at pre-treatment, 0, 2, 4, 6 hours post treatment to measure the levels of VT1021 (FIG. 2). The tumor biopsy samples prior to treatment and during treatment were collected from the clinical study to measure expression levels of biomarkers including CD36 and CD47, as well as cell surface markers for immune cell populations in the TME by immunohistochemistry assays (FIG. 3, FIG. 4, FIG. 5). The correlation between days on study and tumor shrinkage versus expression profile of CD36 and CD47 was analyzed (FIG. 4). The general expression profile of CD36 and CD47 has been assessed by IHC on Tumor Tissue Microarrays (TMAs), which contain biopsy samples collected from pancreatic cancer patients. TMAs were purchased from commercial sources, not related to the VT1021-01 clinical study. Common adverse effects (AEs) in escalation subjects with pancreatic cancer (Part 1) are shown in Table 1 The AEs shown occurred in 2 or more subjects, all cycles, maximum grade, regardless of toxicity). Of 39 pancreatic cancer subjects enrolled and dosed, 7 subjects were enrolled in the Part 1 escalation cohort. All 7 subjects reported at least one AE (regardless of causality). Four subjects had at least one AE, which was probably or possibly related to the study drug. […] Five subjects reported at least one severe adverse event (SAE) (regardless of causality). Two subjects had SAEs definitely or possibly related to study drug: infusion related reaction (grade 3), altered mental status (grade 2). Thirty-two subjects were enrolled in the Part 2 […] cohort. Thirty subjects reported at least one AE (regardless of causality). Eighteen subjects had at least one AE definitely, probably or possibly related to the study drug. Twenty subjects reported at least one SAE (regardless of causality). Two subjects had SAEs possibly related to study drug: thrombosis (grade 3), fever (grade 1)"}, "[2]": {"tested_on": "animal models of ovarian, pancreatic, and breast cancer", "assay": "Preclinical studies in animal models of cancer", "format": "in vivo", "settings": "multiple animal models of ovarian"}, "[3]": {"settings": "Part 1 escalation cohort, 7 pancreatic cancer subjects"}, "[4]": {"settings": "Part 1 escalation, pancreatic cancer, all cycles, maximum grade"}, "[5]": {"settings": "Part 2 cohort, 32 pancreatic cancer subjects"}, "[6]": {"settings": "Part 2 expansion, pancreatic cancer, all cycles, maximum grade"}}, "note": "No end group written: not given here.", "data": [{"substance": "cyclic DWLPK (also: cyclic, mode of cyclisation not given here) [VT1021, 5-amino acid cyclic peptide from prosaposin; Tsp-1-inducing agent]", "values": [{"measurement": "tumor burden compared to control subjects", "setting": "pancreatic cancer", "result": "reduction in tumor burden"}, {"measurement": "TSP-1 in the on-study biopsy", "setting": "TSP-1", "result": "TSP-1 induction"}, {"measurement": "tumor cells by pathological examination of the on-study biopsy", "setting": "TSP-1", "result": "No tumor cells were detected"}, {"measurement": "Urinary tract infection (AE), Grade 2", "setting": "[1]", "result": 2, "unit": "subjects"}, {"measurement": "subjects with SAEs definitely or possibly related to study drug", "setting": "[1]; Part 1, 7 pancreatic cancer subjects, infusion related reaction (grade 3), altered mental status (grade 2)", "result": "Two"}, {"measurement": "dose-limiting toxicity", "setting": "[1]; [3]", "result": "no dose-limiting toxicity"}, {"measurement": "subjects reporting at least one AE (regardless of causality)", "setting": "[1]; [3]", "result": 7, "unit": "subjects"}, {"measurement": "subjects reporting at least one severe adverse event (SAE) (regardless of causality)", "setting": "[1]; [3]", "result": "Five"}, {"measurement": "subjects with at least one AE probably or possibly related to the study drug", "setting": "[1]; [3]", "result": "Four"}, {"measurement": "Abdominal pain (AE), Grade 1", "setting": "[1]; [4]", "result": 3, "unit": "subjects"}, {"measurement": "Abdominal pain (AE), Grade 3", "setting": "[1]; [4]", "result": 1, "unit": "subjects"}, {"measurement": "Abdominal pain (AE), Total", "setting": "[1]; [4]", "result": 4, "unit": "subjects"}, {"measurement": "Constipation (AE), Grade 1", "setting": "[1]; [4]", "result": 1, "unit": "subjects"}, {"measurement": "Constipation (AE), Grade 3", "setting": "[1]; [4]", "result": 1, "unit": "subjects"}, {"measurement": "Constipation (AE), Total", "setting": "[1]; [4]", "result": 2, "unit": "subjects"}, {"measurement": "Fatigue (AE), Grade 1", "setting": "[1]; [4]", "result": 2, "unit": "subjects"}, {"measurement": "Fatigue (AE), Total", "setting": "[1]; [4]", "result": 2, "unit": "subjects"}, {"measurement": "Infusion related reaction (AE), Grade 2", "setting": "[1]; [4]", "result": 1, "unit": "subjects"}, {"measurement": "Infusion related reaction (AE), Grade 3", "setting": "[1]; [4]", "result": 1, "unit": "subjects"}, {"measurement": "Infusion related reaction (AE), Total", "setting": "[1]; [4]", "result": 2, "unit": "subjects"}, {"measurement": "Nausea (AE), Grade 1", "setting": "[1]; [4]", "result": 2, "unit": "subjects"}, {"measurement": "Nausea (AE), Total", "setting": "[1]; [4]", "result": 2, "unit": "subjects"}, {"measurement": "Thrombosis (AE), Grade 3", "setting": "[1]; [4]", "result": 2, "unit": "subjects"}, {"measurement": "Thrombosis (AE), Total", "setting": "[1]; [4]", "result": 2, "unit": "subjects"}, {"measurement": "subjects with SAEs possibly related to study drug", "setting": "[1]; Part 2, 32 pancreatic cancer subjects, thrombosis (grade 3), fever (grade 1)", "result": "Two"}, {"measurement": "subjects reporting at least one AE (regardless of causality)", "setting": "[1]; [5]", "result": "Thirty"}, {"measurement": "subjects reporting at least one SAE (regardless of causality)", "setting": "[1]; [5]", "result": "Twenty"}, {"measurement": "subjects with at least one AE definitely, probably or possibly related to the study drug", "setting": "[1]; [5]", "result": "Eighteen"}, {"measurement": "Abdominal pain (AE), Grade 1", "setting": "[1]; [6]", "result": 3, "unit": "subjects"}, {"measurement": "Abdominal pain (AE), Grade 2", "setting": "[1]; [6]", "result": 9, "unit": "subjects"}, {"measurement": "Abdominal pain (AE), Grade 3", "setting": "[1]; [6]", "result": 4, "unit": "subjects"}, {"measurement": "Abdominal pain (AE), Total", "setting": "[1]; [6]", "result": 16, "unit": "subjects"}, {"measurement": "Alanine aminotransferase increased (AE), Grade 1", "setting": "[1]; [6]", "result": 4, "unit": "subjects"}, {"measurement": "Alanine aminotransferase increased (AE), Grade 3", "setting": "[1]; [6]", "result": 2, "unit": "subjects"}, {"measurement": "Alanine aminotransferase increased (AE), Total", "setting": "[1]; [6]", "result": 6, "unit": "subjects"}, {"measurement": "Anaemia (AE), Grade 1", "setting": "[1]; [6]", "result": 4, "unit": "subjects"}, {"measurement": "Anaemia (AE), Grade 2", "setting": "[1]; [6]", "result": 2, "unit": "subjects"}, {"measurement": "Anaemia (AE), Grade 3", "setting": "[1]; [6]", "result": 1, "unit": "subjects"}, {"measurement": "Anaemia (AE), Total", "setting": "[1]; [6]", "result": 7, "unit": "subjects"}, {"measurement": "Aspartate aminotransferase increased (AE), Grade 1", "setting": "[1]; [6]", "result": 2, "unit": "subjects"}, {"measurement": "Aspartate aminotransferase increased (AE), Grade 2", "setting": "[1]; [6]", "result": 2, "unit": "subjects"}, {"measurement": "Aspartate aminotransferase increased (AE), Grade 3", "setting": "[1]; [6]", "result": 2, "unit": "subjects"}, {"measurement": "Aspartate aminotransferase increased (AE), Total", "setting": "[1]; [6]", "result": 6, "unit": "subjects"}, {"measurement": "Blood bilirubin increased (AE), Grade 2", "setting": "[1]; [6]", "result": 3, "unit": "subjects"}, {"measurement": "Blood bilirubin increased (AE), Grade 3", "setting": "[1]; [6]", "result": 4, "unit": "subjects"}, {"measurement": "Blood bilirubin increased (AE), Total", "setting": "[1]; [6]", "result": 7, "unit": "subjects"}, {"measurement": "Constipation (AE), Grade 1", "setting": "[1]; [6]", "result": 4, "unit": "subjects"}, {"measurement": "Constipation (AE), Grade 2", "setting": "[1]; [6]", "result": 4, "unit": "subjects"}, {"measurement": "Constipation (AE), Total", "setting": "[1]; [6]", "result": 8, "unit": "subjects"}, {"measurement": "Decreased appetite (AE), Grade 1", "setting": "[1]; [6]", "result": 7, "unit": "subjects"}, {"measurement": "Decreased appetite (AE), Grade 2", "setting": "[1]; [6]", "result": 2, "unit": "subjects"}, {"measurement": "Decreased appetite (AE), Grade 3", "setting": "[1]; [6]", "result": 2, "unit": "subjects"}, {"measurement": "Decreased appetite (AE), Total", "setting": "[1]; [6]", "result": 11, "unit": "subjects"}, {"measurement": "Diarrhoea (AE), Grade 1", "setting": "[1]; [6]", "result": 5, "unit": "subjects"}, {"measurement": "Diarrhoea (AE), Grade 2", "setting": "[1]; [6]", "result": 3, "unit": "subjects"}, {"measurement": "Diarrhoea (AE), Total", "setting": "[1]; [6]", "result": 8, "unit": "subjects"}, {"measurement": "Fatigue (AE), Grade 1", "setting": "[1]; [6]", "result": 3, "unit": "subjects"}, {"measurement": "Fatigue (AE), Grade 2", "setting": "[1]; [6]", "result": 8, "unit": "subjects"}, {"measurement": "Fatigue (AE), Grade 3", "setting": "[1]; [6]", "result": 3, "unit": "subjects"}, {"measurement": "Fatigue (AE), Total", "setting": "[1]; [6]", "result": 14, "unit": "subjects"}, {"measurement": "Insomnia (AE), Grade 1", "setting": "[1]; [6]", "result": 6, "unit": "subjects"}, {"measurement": "Insomnia (AE), Total", "setting": "[1]; [6]", "result": 6, "unit": "subjects"}, {"measurement": "Nausea (AE), Grade 1", "setting": "[1]; [6]", "result": 10, "unit": "subjects"}, {"measurement": "Nausea (AE), Grade 2", "setting": "[1]; [6]", "result": 3, "unit": "subjects"}, {"measurement": "Nausea (AE), Grade 3", "setting": "[1]; [6]", "result": 1, "unit": "subjects"}, {"measurement": "Nausea (AE), Total", "setting": "[1]; [6]", "result": 14, "unit": "subjects"}, {"measurement": "Pyrexia (AE), Grade 1", "setting": "[1]; [6]", "result": 6, "unit": "subjects"}, {"measurement": "Pyrexia (AE), Total", "setting": "[1]; [6]", "result": 6, "unit": "subjects"}, {"measurement": "Urinary tract infection (AE), Total", "setting": "[1]; human, in vivo", "result": 2, "unit": "subjects"}, {"measurement": "major adverse events (AEs)", "setting": "[1]; phase I/II study, solid tumors including pancreatic cancer", "result": "no major adverse events"}, {"measurement": "anti-tumor activity", "setting": "[2]", "result": "robust anti-tumor activity"}]}]}
